The values that follow come from US20030162943A1 (Takeda / Millennium, published 2003).

The Kd is the free concentration of one partner at which half of the binding sites on the other are occupied at equilibrium, for simple one-to-one binding. Read a high Kd as a looser complex.

The chains are these.
B2: human D6 mutant K142R, E145A (receptor)
chain: MAATASPQPLATEDADSENSSFYYYDYLDEVAFMLCRKDAVVSFGKVFLPVFYSLIFVLGLSGNLLLLMVLLRYVPRRRMVEIYLLNLAISNLLFLVTLPFWGISVAWHWVFGSFLCKMVSTLYTINFYSGIFFISCMSLDRYLAIVHAQPYHRLRTRAKSLLLATIVWAVSLAVSIPDMVFVQTHENPKGVWNCHADFGGHGTIWKLFLRFQQNLLGFLLPLLAMIFFYSRIGCVLVRLRPAGQGRALKIAAALVVAFFVLWFPYNLTLFLHTLLDLQVFGNCEVSQHLDYALQVTESIAFLHCCFSPILYAFSSHRFRQYLKAFLAAVLGWHLAPGTAQASLSSCSESSILTAQEEMTGMNDLGERQSENYPNKEDVGNKSA
notes: Expressed in HEK 293 cells; also called K142R,E145A mutant
B3: human D6 triple mutant N92D, K142R, E145A (receptor)
chain: MAATASPQPLATEDADSENSSFYYYDYLDEVAFMLCRKDAVVSFGKVFLPVFYSLIFVLGLSGNLLLLMVLLRYVPRRRMVEIYLLNLAISDLLFLVTLPFWGISVAWHWVFGSFLCKMVSTLYTINFYSGIFFISCMSLDRYLAIVHAQPYHRLRTRAKSLLLATIVWAVSLAVSIPDMVFVQTHENPKGVWNCHADFGGHGTIWKLFLRFQQNLLGFLLPLLAMIFFYSRIGCVLVRLRPAGQGRALKIAAALVVAFFVLWFPYNLTLFLHTLLDLQVFGNCEVSQHLDYALQVTESIAFLHCCFSPILYAFSSHRFRQYLKAFLAAVLGWHLAPGTAQASLSSCSESSILTAQEEMTGMNDLGERQSENYPNKEDVGNKSA
notes: Expressed in HEK 293 cells
B12: murine MIP-1α (ligand, UniProt P10855 24-92, looked up)
chain: APYGADTPTACCFSYSRKIPRQFIVDYFETSSLCSQPGVIFLTKRNRQICADSKETWVQEYITDLELNA
modifications: also: radioiodinated (125I) when used as tracer
notes: also called mMIP-1α

The target in assay [1] is T1, murine D6 (murine, UniProt O08707 1-378).
T1 construct: Endogenous on B-end cells in the polyclonal antibody staining; also called murine D6 receptor; mouse D6
T1 sequence: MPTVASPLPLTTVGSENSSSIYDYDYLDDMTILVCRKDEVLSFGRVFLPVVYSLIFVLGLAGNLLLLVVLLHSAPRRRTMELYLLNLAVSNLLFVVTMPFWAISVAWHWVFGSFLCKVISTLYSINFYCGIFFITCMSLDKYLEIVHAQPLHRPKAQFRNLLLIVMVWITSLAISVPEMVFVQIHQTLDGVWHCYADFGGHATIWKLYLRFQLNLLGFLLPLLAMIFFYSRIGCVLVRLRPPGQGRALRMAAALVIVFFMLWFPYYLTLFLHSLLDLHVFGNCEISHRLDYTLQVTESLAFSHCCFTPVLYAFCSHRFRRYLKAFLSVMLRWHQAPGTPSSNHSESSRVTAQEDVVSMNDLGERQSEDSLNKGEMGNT
As to the kind of experiment: competition with 125I-murine MIP-1α on CHO cells stably expressing murine D6; LIGAND analysis. How it is done:
(§1) Stably transfected CHO cells were plated at 10^5 cells/well in 24-well plates and incubated overnight at 37° C. After washing with warm PBS, the cells were incubated in 250 μl of binding buffer (special liquid medium plus 10% fetal calf serum, 4 mM glutamine, 0.2% sodium azide, 25 mM HEPES (pH 7.4)) containing variable concentrations of radioiodinated MIP-1 and cold competitor chemokine. Binding proceeded for 90 minutes at 22° C., then each well washed three times in ice-cold PBS and the cell monolayer was then solubilized by the addition of 0.5 ml of 1% SDS. Lysed cells were transferred to a counting vial and bound radioactivity counted for 1 minute in Beckman Gamma 5500B counter. Each data point was assayed in triplicate and each experiment performed at least twice of accuracy. Data was analyzed using Scahot and Scafit programs in LIGAND software (Munson et al. (1980) Anal. Biochem. 107:220-239).

Assay [2] concerns the target T2, human D6 (human, UniProt O00590 1-384).
T2 construct: Full-length human D6 expressed in CHO, Hos.CD4, HEK 293, K293 or L1.2 cells; Endogenous on THP-1 cells; also called human D6 receptor; wild type human D6
T2 sequence: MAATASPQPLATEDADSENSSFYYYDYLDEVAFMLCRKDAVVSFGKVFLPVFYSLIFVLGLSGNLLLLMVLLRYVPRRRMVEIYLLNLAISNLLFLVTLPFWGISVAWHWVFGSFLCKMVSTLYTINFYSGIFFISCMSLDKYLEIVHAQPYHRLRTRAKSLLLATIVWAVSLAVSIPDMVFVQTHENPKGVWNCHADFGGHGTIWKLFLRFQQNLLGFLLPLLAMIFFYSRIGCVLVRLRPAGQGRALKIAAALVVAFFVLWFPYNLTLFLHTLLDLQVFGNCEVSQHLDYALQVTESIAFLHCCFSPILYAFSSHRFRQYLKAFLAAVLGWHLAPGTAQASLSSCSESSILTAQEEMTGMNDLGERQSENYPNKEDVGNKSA
In words: displacement of 125I-murine MIP-1α by unlabeled chemokine on cells expressing human D6; LIGAND analysis. The method, then:
as §1
The receptor binding assays were carried out as described above for the displacement analysis of murine D6 with cells being plated at 2×10⁵ cells/well in 24-well plates and incubated overnight at 37° C. prior to binding analysis.
Background: Displacement assays read how much labelled ligand stays bound in the presence of the test substance.

For assay [3], the target named is B2. In words: cell-based or functional assay.
Assay [4] addresses B12. In words: radioligand binding on transfected cells.
In assay [5] the target is B3. In words: cell-based or functional assay.
Assay [6] concerns the target T1, murine D6. As to the kind of experiment: displacement of radiolabeled murine MIP-1α from murine D6 on transfected cells. How it is done:
as §1

Assay [7] concerns the target T1, murine D6. In words: binding assays on CHO cells expressing murine D6. The method, then:
as §1

Assay [8] deals with T3, human CCR5 (human, UniProt P51681 1-352 at identity 1.00)).
T3 chain: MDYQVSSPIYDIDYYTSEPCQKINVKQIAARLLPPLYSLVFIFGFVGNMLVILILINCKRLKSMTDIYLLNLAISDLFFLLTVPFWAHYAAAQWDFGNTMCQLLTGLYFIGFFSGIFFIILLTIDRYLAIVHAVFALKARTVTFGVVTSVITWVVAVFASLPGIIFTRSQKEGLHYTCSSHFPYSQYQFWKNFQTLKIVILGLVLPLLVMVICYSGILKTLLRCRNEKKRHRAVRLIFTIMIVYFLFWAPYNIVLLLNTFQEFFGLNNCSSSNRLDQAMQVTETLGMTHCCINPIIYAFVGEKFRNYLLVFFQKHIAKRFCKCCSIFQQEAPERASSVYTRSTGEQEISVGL
In words: cell-based or functional assay.

B1: human RANTES (ligand, UniProt P13501 24-91, looked up)
chain: SPYSSDTTPCCFAYIARPLPRAHIKEYFYTSGKCSNPAVVFVTRKNRQVCANPEKKWVREYINSLEMS
notes: also called hRANTES; HRANTES
On to B1, for which the Kd amounted to 2 nM in assay [1] and 3.6 nM in assay [2]. Further, the “[Ca++]” value in assay [3] is 19.3 nmol/L. Turning to B2, in assay [4], the binding result is “binds”. Still for that read-out and setting: as for B3, the entry is “binds”.

B4: murine MIP-1β (ligand, UniProt P14097 24-92, looked up)
chain: APMGSDPPTSCCFSYTSRQLHRSFVMDYYETSSLCSKPAVVFLTKRGRQICANPSEPWVTEYMSDLELN
notes: also called mMIP-1β; murine M1β
B4: the Kd was 0.77 nM in assay [1] and 0.755 nM in assay [2].

B5: murine Eotaxin (ligand, UniProt P48298 24-97, looked up)
chain: HPGSIPTSCCFIMTSKKIPNTLLKSYKRITNNRCTLKAIVFKTRLGKEICADPKKKWVQDATKHLDQKLQTPKP
Take B5: in assay [2], the Kd was 30 nM.

B6: human MCP-2 (ligand, UniProt P80075 24-99, looked up)
chain: QPDSVSIPITCCFNVINRKIPIQRLESYTRITNIQCPKEAVIFKTKRGKEVCADPKERWVRDSMKHLDQIFQNLKP
notes: also called hMCP-2
With B6, the affinity in assay [2], expressed as Kd, was 768 nM. The results for the “[Ca++]” value in assay [3] and in assay [5] were 22.9 nmol/L and 13.7 nmol/L, respectively.

B7: KC (ligand, UniProt P12850 25-96, looked up)
chain: APIANELRCQCLQTMAGIHLKNIQSLKVLPSGPHCTQTEVIATLKNGREACLDPEAPLVQKIVQKMLKGVPK
For B7, in assay [6], the binding result is listed as “no binding”.

B8: human MCP-4 (ligand)
chain: not shown
Molecule B8 displayed a Kd in assay [2] of 5.9 nM. This lies in the single-digit nanomolar range.

B9: murine MCP-5 (ligand, UniProt Q62401 23-104, looked up)
chain: GPDAVSTPVTCCYNVVKQKIHVRKLKSYRRITSSQCPREAVIFRTILDKEICADPKEKWVKNSINHLDKTSQTFILEPSCLG
notes: also called mMCP-5
B9 registered a Kd in assay [2] of 6.3 nM.

B10: human HCC1 (ligand, UniProt Q16627 20-93, looked up)
chain: TKTESSSRGPYHPSECCFTYTTYKIPRQRIMDYYETNSQCSKPGIVFITKRGHSVCTNPSDKWVQDYIKDMKEN
Turning to B10, the Kd in assay [2] is 27.2 nM.

B11: murine JE (ligand)
chain: not shown
notes: They are treated here as one protein (JE is the murine MCP-1); also called murine MCP-1
Turning to B11, the figures for the Kd in assay [1] and in assay [2] were 1.5 nM and 613 nM, respectively. As to B12, the binding result in assay [7] was “binds”. The molecule further had a dissociation constant (Kd) in assay [2] of 0.92 nM. For the same molecule, the “[Ca++]” value came out at 28.2 nmol/L in assay [3] and 11.3 nmol/L in assay [5].

B13: human MIP-1β (ligand, UniProt P13236 24-92, looked up)
chain: APMGSDPPTACCFSYTARKLPRNFVVDYYETSSLCSQPAVVFQTKRSKQVCADPSESWVQEYVYDLELN
For the molecule B13, the Kd in assay [1] came out at 0.26 nM; in assay [2], 1.7 nM.

B14: human Eotaxin (ligand)
chain: not shown
As to B14, the Kd in assay [2] turned out to be 46 nM.

B15: human MCP-3 (ligand)
chain: not shown
notes: also called hMCP-3
On to B15, for which the Kd in assay [1] amounted to 5 nM; in assay [2] it was 1.2 nM.

B16: human MIP-1α (ligand, UniProt P10147 24-92, looked up)
chain: SLAADTPTACCFSYTSRQIPQNFIADYFETSSQCSKPGVIFLTKRSRQVCADPSEEWVQKYVSDLELSA
notes: also called hMIP-1α
B16 displayed a Kd in assay [2] of 64 nM. The “[Ca++]” value in assay [8] stood at 412 nmol/L.
